Laboratory results as given in PMC7496933, “TIM‐3 and CEACAM1 do not interact in cis and in trans” (European Journal of Immunology, 2020).

Target: T1, recombinant human CEACAM1 expressed in the murine myeloma cell line NSO (human, UniProt P13688 35-428)
T1 construct: human CEACAM1, recombinant; also called immobilized CEACAM1; CD66a; source: bought: R&D systems (expressed in NSO cells)
T1 sequence (looked up): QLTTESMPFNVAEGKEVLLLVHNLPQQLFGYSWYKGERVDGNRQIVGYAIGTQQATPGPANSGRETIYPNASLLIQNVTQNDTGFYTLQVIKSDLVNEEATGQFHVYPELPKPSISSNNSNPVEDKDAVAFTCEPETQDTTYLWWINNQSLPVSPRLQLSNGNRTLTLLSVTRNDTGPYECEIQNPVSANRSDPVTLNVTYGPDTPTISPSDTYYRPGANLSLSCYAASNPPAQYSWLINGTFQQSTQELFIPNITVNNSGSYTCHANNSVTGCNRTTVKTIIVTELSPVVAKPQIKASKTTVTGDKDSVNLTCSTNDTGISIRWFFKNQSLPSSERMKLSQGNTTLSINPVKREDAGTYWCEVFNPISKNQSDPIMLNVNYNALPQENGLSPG
Experiment: ELISA; Gal‐9 or CEACAM1 immobilized overnight at 4°C on Maxisorp plates (coating 0.5 μg/mL); Ig fusion proteins added in PBS‐0.5% BSA, 1 h at room temperature; detected with HRP‐labeled goat‐anti‐human IgG (Fc‐specific), ABTS, OD 405 nm
Conditions: both partners purified

binding result: binds
B1: fusion protein representing the extracellular domain of CEACAM1 (CEACAM1‐Ig) (Fc fusion, human, UniProt P13688 35-428, looked up)
chain: QLTTESMPFNVAEGKEVLLLVHNLPQQLFGYSWYKGERVDGNRQIVGYAIGTQQATPGPANSGRETIYPNASLLIQNVTQNDTGFYTLQVIKSDLVNEEATGQFHVYPELPKPSISSNNSNPVEDKDAVAFTCEPETQDTTYLWWINNQSLPVSPRLQLSNGNRTLTLLSVTRNDTGPYECEIQNPVSANRSDPVTLNVTYGPDTPTISPSDTYYRPGANLSLSCYAASNPPAQYSWLINGTFQQSTQELFIPNITVNNSGSYTCHANNSVTGCNRTTVKTIIVTELSPVVAKPQIKASKTTVTGDKDSVNLTCSTNDTGISIRWFFKNQSLPSSERMKLSQGNTTLSINPVKREDAGTYWCEVFNPISKNQSDPIMLNVNYNALPQENGLSPG
notes: CEACAM1 (CD66a), extracellular domain; also called CEACAM1 Ig fusion protein; source: bought: SinoBiological
